Source: US20040072184A1

What was measured:
CapK peptide = molecular target: T1, CapK peptide; test: cell-based or functional assay
T1 sequence (peptide): CGRTGRRNSI

PKB-sub peptide = molecular target: T2, PKB-sub peptide; test: cell-based or functional assay
T2 sequence (peptide): CKRPRAASFAE

B1: GST-SGK2 fusion protein (enzyme, not shown: a dimerising Fc or GST)
chain: MNSSPAGTPSPQPSRANGNINLGPSANPNAQPTDFDFLKVIGKGNYGKVLLAKRKSDGAFYAVKVLQKKSILKKKEQSHIMAERSVLLKNVRHPFLVGLRYSFQTPEKLYFVLDYVNGGELFFHLQRERRFLEPRARFYAAEVASAIGYLHSLNIIYRDLKPENILLDCQGHVVLTDFGLCKEGVEPEDTTSTFCGTPEYLAPEVLRKEPYDRAVDWWCLGAVLYEMLHGLPPFYSQDVSQMYENILHQPLQIPGGRTVAACDLLQSLLHKDQRQRLGSKADFLEIKNHVFFSPINWDDLYHKRLTPPFNPNVTGPADLKHFDPEFTQEAVSKSIGCTPDTVASSSGASSAFLGFSYAPEDDDILDC
kinase activity, CapK sub (CCPM1); GST-SGK2 from Hi5 cells treated with Calyculin A (CapK peptide): 59300 CCPM1 | kinase activity, CapK sub (CCPM1); GST-SGK2 from Hi5 cells treated with Microcysteine (CapK peptide): 330 CCPM1 | kinase activity, CapK sub (CCPM1); GST-SGK2 from Hi5 cells treated with Okadaic Acid (CapK peptide): 162000 CCPM1 | kinase activity, CapK sub (CCPM1); GST-SGK2 from untreated Hi5 cells (CapK peptide): 1080 CCPM1 | kinase activity, PKB sub (CCPM1); GST-SGK2 from Hi5 cells treated with Calyculin A (PKB-sub peptide): 92500 CCPM1 | kinase activity, PKB sub (CCPM1); GST-SGK2 from Hi5 cells treated with Microcysteine (PKB-sub peptide): 217 CCPM1 | kinase activity, PKB sub (CCPM1); GST-SGK2 from Hi5 cells treated with Okadaic Acid (PKB-sub peptide): 132000 CCPM1 | kinase activity, PKB sub (CCPM1); GST-SGK2 from untreated Hi5 cells (PKB-sub peptide): 979 CCPM1
